Consider 12 molecules from patent US20220152100A1, “METHODS FOR CONTROLLED ACTIVATION OR ELIMINATION OF THERAPEUTIC CELLS” (Bellicum Pharmaceuticals, Inc., priority 2014, published 2022).

Where a chain is given by its changes, count along the chain named. In names and notes the source's numbering stands. Entries after “also recorded” stand apart in the source; their conditions may differ. Where a SMILES comes first, the peptide text is derived from it. The star is where a group is joined. Cbz = O=C(OCc1ccccc1)*; CH2F = FC*

For data set [1], the system named is EBV-specific CTL lines (EBV-CTL). Nature of the data set: CID-induced elimination/apoptosis of transduced EBV-CTLs (GFP, annexin V/7-AAD flow cytometry). The settings on record: 100 μM for 1 hour prior to adding CID. It is filed as cell-based, human.
A further data set has as its system HEK293T/16 cells. Nature of the data set: SEAP-based surrogate killing assay of iCasp9 mutants. Type of data set: cell-based, human. To be noted: for effect on basal / catalytic activity: in words, versus wild type. As to the method:
Early passage HEK293T/16 cells (ATCC, Manassas, Va.) were maintained in IMDM, GlutaMAX™ (Life Technologies, Carlsbad, Calif.) supplemented with 10% FBS, 100 U/mL penicillin, and 100 […] until transfection in a humidified, 37° C., 5% CO2/95% air atmosphere. Cells in logarithmic-phase growth were transiently transfected with 800 ng to 2 μg of expression plasmid encoding iCasp9 mutants and 500 ng of an expression plasmid encoding SRα promoter driven SEAP per million cells in 15-mL conical tubes. […] GeneJammer® Transfection Reagent at a ratio of 3 μl per ug of plasmid DNA was used to transiently transfect HEK293T/16 cells in the absence of antibiotics. 100 μl or 2 mL of the transfection mixture was added to each well in 96-well or 6-well plate, respectively.
Briefly, after 65° C. heat denaturation for 45 minutes to reduce background caused by endogenous (and serum-derived) alkaline phosphatases that are sensitive to heat, 5 μl of supernatants was added to 95 μl of PBS and added to 100 μl of substrate buffer, containing 1 μl of 100 mM 4-methylumbelliferyl phosphate (4-MUP; Sigma, St. Louis, Mo.) re-suspended in 2 M diethanolamine. Hydrolysis of 4-MUP by SEAP produces a fluorescent […] with excitation/emission (355/460 nm), which can be easily measured. Assays were performed in black opaque 96-well plates to minimize fluorescence leakage between wells. […] of the mixture was seeded onto each well of a 96-well plate. […] For the assay, 4-methylumbelliferyl phosphate substrate was hydrolyzed by SEAP to 4-methylumbelliferon, a metabolite that can be excited with 364 nm and detected with an emission filter of 448 nm. Since SEAP is used as a marker for cell viability, reduced SEAP reading corresponds with increased iCaspase-9 activities.

Another data set deals with PG13. Type of data set: cell-based. The settings on record: for CD19 mean fluorescence intensity (MFI): PG13 cross-transduced five times; for viral titers: upon HAT media treatment, HT1080 cells.
The next data set has as its system Primary T cells. The data set is described as follows: AP1903-dependent cytotoxicity in primary T cells transduced with iCasp9 variants (CD3+CD19+ flow cytometry). It is filed as cell-based, human. To be noted: for killing of target T cells: AP1903 at Day 0 and day 4, within 10 days. As for the experimental part:
The effects of various caspase polypeptides at mostly single copy in primary T cells was assayed. This may reflect more accurately how these suicide genes will be used therapeutically.
Primary T cells from healthy donors (n=6) were transduced with retrovirus encoding mutant or wild-type iCasp9 or iCasp9-D330A, and the ΔCD19 cell surface marker. Following transduction, iCasp9-transduced T cells were purified using CD19-microbeads and a magnetic column.

Turning to `COC(=O)C[C@H](NC(=O)[C@H](C)NC(=O)[C@@H](NC(=O)OCc1ccccc1)C(C)C)C(=O)CF` [zVAD-fmk] (Cbz-Val-Ala-Asp(OMe)-CH2F), the “effect on CID-induced apoptosis” value in data set [1] is on record as “inhibited”.

B1: D330A: chimeric modified Caspase-9 polypeptide, SEQ ID NO: 24 (protein)
chain: GFGDVGALESLRGNADLAYILSMEPCGHCLIINNVNFCRESGLRTRTGSNIDCEKLRRRFSSLHFMVEVKGDLTAKKMVLALLELARQDHGALDCCVVVILSHGCQASHLQFPGAVYGTDGCPVSVEKIVNIFNGTSCPSLGGKPKLFFIQACGGEQKDHGFEVASTSPEDESPGSNPEPDATPFQEGLRTFDQLAAISSLPTPSDIFVSYSTFPGFVSWRDPKSGSWYVETLDDIFEQWAHSEDLQSLLLRVANAVSVKGIYKQMPGCFNFLRKKLFFKTS
As to B1, in the data set with HEK293T/16 cells (1 μg iCasp9 per million cells), the “relative SEAP activity Units (basal, without AP1903)” value was found to be 148928. For the same molecule, the “relative SEAP activity Units (basal, without AP1903)” value in the data set with HEK293T/16 cells (2 μg iCasp9 per million cells) is recorded as 136863. The “effect on basal / catalytic activity” value in the data set on HEK293T/16 cells is listed as “lowered basal activity, but not as low as in N405Q; also recorded: less basal activity than wild type Caspase-9”. In the data set on PG13, the “CD19 mean fluorescence intensity (MFI)” value is “enhanced CD19 mean fluorescence intensity” and the viral titers result is “higher viral titers”. The “sensitivity to AP1903 / killing of target cells” value in the data set with Primary T cells is “more sensitive to AP1903 at low titers and kills at least as well as WT Caspase-9”. In the data set with Primary T cells (6 healthy donors, AP1903 0-100 nM, 24 hours), the “IC50 of AP1903” value is “significantly lower”.

B2: N405Q: chimeric modified Caspase-9 polypeptide, SEQ ID NO: 26 (protein)
chain: B1 chain with A196D, N271Q
Regarding B2, the “relative SEAP activity Units (basal, without AP1903)” value with HEK293T/16 cells (1 μg iCasp9 per million cells) came out at 179081. Also, the “relative SEAP activity Units (basal, without AP1903)” value in the data set on HEK293T/16 cells (2 μg iCasp9 per million cells) turned out to be 175529. The “effect on basal / catalytic activity” value with HEK293T/16 cells is given as “lowered basal activity; also recorded: lower basal activity than D330A”. Moreover, in the data set on PG13, the “CD19 mean fluorescence intensity (MFI)” value was “enhanced CD19 mean fluorescence intensity” and the viral titers entry is “higher viral titers”. Besides, in the data set with Primary T cells, the “sensitivity to AP1903 / killing of target cells” value was “less sensitive to AP1903 and cannot kill target cells as efficiently within 24 hours”; the “killing of target T cells” value was “can kill target T cells indistinguishable from wild type Caspase-9 polypeptide or D330A within 10 days”.

B3: T317C: chimeric modified Caspase-9 polypeptide (protein)
chain: VDGFGDVGALESLRGNADLAYILSMEPCGHCLIINNVNFCRESGLRTRTGSNIDCEKLRRRFSSLHFMVEVKGDLTAKKMVLALLELARQDHGALDCCVVVILSHGCQASHLQFPGAVYGTDGCPVSVEKIVNIFNGTSCPSLGGKPKLFFIQACGGEQKDHGFEVASTSPEDESPGSNPEPDACPFQEGLRTFDQLDAISSLPTPSDIFVSYSTFPGFVSWRDPKSGSWYVETLDDIFEQWAHSEDLQSLLLRVANAVSVKGIYKQMPGCFNFLRKKLFFKTSASRA
B3: the “effect on basal / catalytic activity” value in the data set with HEK293T/16 cells was “no effect”.

B4: D330S: chimeric modified Caspase-9 polypeptide (protein)
chain: B3 chain with C185T, D198S
Take B4: the “effect on basal / catalytic activity” value with HEK293T/16 cells is reported as “less basal activity than wild type Caspase-9”.

B5: D330G: chimeric modified Caspase-9 polypeptide (protein)
chain: B3 chain with C185T, D198G
On to B5, for which the “effect on basal / catalytic activity” value with HEK293T/16 cells is recorded as “less basal activity than wild type Caspase-9”.

B6: T317A: chimeric modified Caspase-9 polypeptide (protein)
chain: B3 chain with C185A
For the molecule B6, the “effect on basal / catalytic activity” value in the data set with HEK293T/16 cells is listed as “can reduce basal activity without a large shift in the IC50”.

B7: D330E: chimeric modified Caspase-9 polypeptide, SEQ ID NO: 188 (protein)
chain: B3 chain with C185T, D198E
As to B7, the “effect on basal / catalytic activity” value in the data set with HEK293T/16 cells is “less basal activity than wild type Caspase-9”. In the data set with PG13, the “CD19 mean fluorescence intensity (MFI)” value was “enhanced CD19 mean fluorescence intensity” and the viral titers result is reported as “higher viral titers”.

B8: D330V: chimeric modified Caspase-9 polypeptide (protein)
chain: B3 chain with C185T, D198V
Regarding B8, the “effect on basal / catalytic activity” value with HEK293T/16 cells is given as “less basal activity than wild type Caspase-9”.

B9: D330N: chimeric modified Caspase-9 polypeptide (protein)
chain: B3 chain with C185T, D198N
On to B9, for which the “effect on basal / catalytic activity” value in the data set on HEK293T/16 cells is recorded as “less basal activity than wild type Caspase-9”.

B10: F404Y: chimeric modified Caspase-9 polypeptide (protein)
chain: B3 chain with C185T, F272Y
B10: the “killing of target T cells” value with Primary T cells is “can kill target T cells indistinguishable from wild type Caspase-9 polypeptide or D330A within 10 days”.

B11: ^316ATPF^319AVPI: Caspase-9 with XIAP-binding tetrapeptide ATPF replaced by AVPI from SMAC/DIABLO (protein, UniProt P55211 1-416, looked up, variant T317V F319I)
chain: MDEADRRLLRRCRLRLVEELQVDQLWDALLSRELFRPHMIEDIQRAGSGSRRDQARQLIIDLETRGSQALPLFISCLEDTGQDMLASFLRTNRQAAKLSKPTLENLTPVVLRPEIRKPEVLRPETPRPVDIGSGGFGDVGALESLRGNADLAYILSMEPCGHCLIINNVNFCRESGLRTRTGSNIDCEKLRRRFSSLHFMVEVKGDLTAKKMVLALLELAQQDHGALDCCVVVILSHGCQASHLQFPGAVYGTDGCPVSVEKIVNIFNGTSCPSLGGKPKLFFIQACGGEQKDHGFEVASTSPEDESPGSNPEPDAVPIQEGLRTFDQLDAISSLPTPSDIFVSYSTFPGFVSWRDPKSGSWYVETLDDIFEQWAHSEDLQSLLLRVANAVSVKGIYKQMPGCFNFLRKKLFFKTS
modifications: ATPF replaced by SMAC AVPI motif
For the molecule B11, the “effect on basal / catalytic activity” value in the data set with HEK293T/16 cells is on record as “no effect”.
